Residue numbers refer to the chain shown, from its start. Names and notes keep the numbering of the source.
Columns and labels:
[1] = tested on: ApPPO1; assay: Herbicide tolerance test of ApPPO1 wild type and variants in PPO-deficient E. coli BT3(ΔPPO), growth on herbicide-containing LB agar; type: cell-based, Auxenochlorella protothecoides; conditions: relative to ApPPO1 WT; for Herbicide tolerance, tiafenacil: up to 200 μM (FIGS. 7-12)
Experimental: Then, the extent of tolerance was evaluated.

[2] = tested on: ApPPO1; assay: PPO enzyme activity of purified MBP-fused ApPPO1 wild type and variants; type: biochemical, Auxenochlorella protothecoides; conditions: PPO enzyme activity relative to ApPPO1 wild type; MBP-fused protein
Experimental: Thus, PPO proteins of wild type and variants were expressed as fused to MBP and were used for experiments.
The following process for purification of PPO protein was performed in a 4° C. cold room. […] The column was washed with 3 column volumes of buffer and the presence of protein in the washing solution was examined. When the protein was no longer detected, the washing procedure was terminated. Then, the MBP-PPO protein was eluted with approximately 2 column volumes of buffer containing 20 mM maltose. The protein concentration of each eluent was determined and the elution was stopped when the protein was no longer detected. Ten microliter of each fraction was investigated for protein quantification and SDS-PAGE analysis. The highly pure fractions of PPO protein variants were used for the enzyme assay.
Since protoporphyrinogen IX, a substrate of PPO protein, was not commercially available, it was chemically synthesized in the laboratory. Overall process was performed in dark under nitrogen stream. […] of protoporphyrin IX was dissolved in 20 ml of 20% (v/v) EtOH, and stirred under dark condition for 30 minutes. The obtained protoporphyrin IX solution was put into a 15 ml screw tube in an amount of 800 μl, and flushed with nitrogen gas for 5 minutes. To this, 1.5 g of sodium amalgam was added and vigorously shaken for 2 minutes. The lid was opened to exhaust hydrogen gas in the tube. Thereafter, the lid was closed and incubated for 3 minutes. The protoporphyrinogen IX solution was filtered using syringe and cellulose membrane filter. To 600 μl of the obtained protoporphyrinogen IX solution, approximately 300 μl of 2M MOPS [3-(N-morpholino) propanesulfonic acid] was added to adjust pH to 8.0. To determine the enzyme activity of PPO protein, a reaction mixture was prepared with the following composition (based on 10 ml): 50 mM Tris-Cl (pH 8.0); 50 mM NaCl; 0.04% (v/v) Tween 20; 40 mM glucose (0.072 g); 5 units glucose oxidase (16.6 mg); and 10 units catalase (1 μl).
Hundred and eighty microliters of a reaction mixture […] were placed in 96 well plates and 20 μl of purified PPO proteins were added. After 50 μl of the mineral oil was layered, the reaction was initiated by adding the substrate, protoporphyrinogen IX solution, to a final concentration of 50 μM. The reaction proceeded at room temperature for 30 min and the fluorescence of protoporphyrin IX was measured using Microplate reader (Sense, Hidex) (excitation: 405 nm; emission: 633 nm). To calculate the PPO enzyme activity, the protoporphyrinogen IX solution was kept open in the air overnight to oxidize the solution. To this, 2.7 N HCl was added, and the absorbance at 408 nm was measured. A standard curve was generated using standard protoporphyrin IX, and PPO activity was measured by calibration of protoporphyrin IX using the standard curve of protoporphyrin IX.
Activities of variants were presented relatively compared to that of wild type.

[3] = dark, up to 100 μM (FIGS. 7-12)
[4] = dark, up to 400 μM (FIGS. 7-12)

B1: A215L: ApPPO1 (SEQ ID NO: 1) variant (protein)
chain: MPFTHLKPLNRLLGSPRARHPHVAPQAVSVTNTSTTRPGGRSSAPGIPGDAEYDVVIVGAGISGLTTAQALAKQYSDAVPRLLVTEARDCVGGNIITRRDGGYQWEEGPNSFQPSDAVLRAAVDAGVADRLVLGDPKAPRYVYWGGRLRATPSGPDVLTFDLLSLWGKLRAGLGAAGFKAPLPEREESVKEFVTRNLGEEVFQRLIEPFCSGVYLGDPAKLSMKAAFGKVYDLEKGGGSIVGGVLALMKARKQKPPEPRPADLPPKPKGQTVGSFDKGLVTLPSAIAEELGDRVVTGWKLESIDRSGDRFQLTYDTPQGRKKVSARSVALTVPAYTAASLLESRFPKLGKALSSIYYPPVASVALSYPETAILPERLGSDGHLAGFGQLHPRTQGVTTLGTIYASSLFPGRVPEGKVLLLSYFGGATNTRVATMPHGEIVSQVDKDLRKMLIRSDAESPHTVNVTVWPRAIPQFNVGHTDLIQEAKDDLASQGWQGLHLGGNYVAGVALGKCMEAGYKQAAELASHVKSLAT
modifications: Synthetic (Protoporphyrinogen IX oxidase (ApPPO1) of Auxenochlorella protothecoides)
For B1, the “Herbicide tolerance, pentoxazone” value ([1]; light, up to 10 μM (FIG. 5)) was “++ (10-99 fold higher tolerance)”, the “Herbicide tolerance, pyraflufenethyl” value ([1]; light, up to 10 μM (FIG. 6)) was “+++ (100-999 fold higher tolerance)” and the “Herbicide tolerance, sulfentrazone” value ([1]; light, up to 25 μM (FIG. 3)) was “+++ (100-999 fold higher tolerance)”. For the same molecule, the “Herbicide tolerance, Fomesafen” value ([1]; light, up to 25 μM (FIG. 4)) was “+++ (100-999 fold higher tolerance)”, the “Herbicide tolerance, acifluorfen” value ([1]; light, up to 25 μM (FIG. 4)) was “+++ (100-999 fold higher tolerance)” and the “Herbicide tolerance, saflufenacil” value ([1]; light, up to 100 μM (FIG. 2)) was “++++ (1,000-9,999 fold higher tolerance)”. The “Herbicide tolerance, flumioxazin” value ([1]; light, up to 200 μM (FIG. 3)) was “++++ (1,000-9,999 fold higher tolerance)” and the “Activity (%)” value [2] was 76%.

B2: A215L + Y422M: ApPPO1 (SEQ ID NO: 1) variant (protein)
chain: B1 chain with Y422M
modifications: Synthetic (Protoporphyrinogen IX oxidase (ApPPO1) of Auxenochlorella protothecoides)
B2 was tested, and the “Herbicide tolerance, flumioxazin” value [1, 3] was “+++++ (more than 10,000 fold higher tolerance)”, the “Herbicide tolerance, tiafenacil” value ([1]; dark) was “+++++ (more than 10,000 fold higher tolerance)” and the “Herbicide tolerance, sulfentrazone” value [1, 4] was “++++ (1,000-9,999 fold higher tolerance)”. For the same molecule, the “Activity (%)” value [2] was 34%.

B3: R140A + Y422M: ApPPO1 (SEQ ID NO: 1) variant (protein)
chain: B1 chain with R140A, L215A, Y422M
modifications: Synthetic (Protoporphyrinogen IX oxidase (ApPPO1) of Auxenochlorella protothecoides)
In the case of B3, the “Herbicide tolerance, flumioxazin” value [1, 3] is reported as “++++ (1,000-9,999 fold higher tolerance)”, the “Herbicide tolerance, tiafenacil” value ([1]; dark) is reported as “++++ (1,000-9,999 fold higher tolerance)” and the “Herbicide tolerance, sulfentrazone” value [1, 4] is reported as “++++ (1,000-9,999 fold higher tolerance)”. For the same molecule, the “Activity (%)” value [2] was 29%.

B4: V213C + Y422M: ApPPO1 (SEQ ID NO: 1) variant (protein)
chain: B1 chain with V213C, L215A, Y422M
modifications: Synthetic (Protoporphyrinogen IX oxidase (ApPPO1) of Auxenochlorella protothecoides)
For B4, the “Herbicide tolerance, flumioxazin” value [1, 3] was “+++ (100-999 fold higher tolerance)”, the “Herbicide tolerance, tiafenacil” value ([1]; dark) was “+++++ (more than 10,000 fold higher tolerance)” and the “Herbicide tolerance, sulfentrazone” value [1, 4] was “++ (10-99 fold higher tolerance)”. The “Activity (%)” value [2] was 29%.

B5: A215C + Y422M: ApPPO1 (SEQ ID NO: 1) variant (protein)
chain: B1 chain with L215C, Y422M
modifications: Synthetic (Protoporphyrinogen IX oxidase (ApPPO1) of Auxenochlorella protothecoides)
B5 was tested, and the “Herbicide tolerance, flumioxazin” value [1, 3] was “+++++ (more than 10,000 fold higher tolerance)”, the “Herbicide tolerance, tiafenacil” value ([1]; dark) was “+++++ (more than 10,000 fold higher tolerance)” and the “Herbicide tolerance, sulfentrazone” value [1, 4] was “++++ (1,000-9,999 fold higher tolerance)”. For the same molecule, the “Activity (%)” value [2] was 58%.

Reference: US20220042033A1, “COMPOSITION AND METHOD FOR CONFERRING AND/OR ENHANCING TOLERANCE AGAINST HERBICIDES BY USING VARIANTS OF PPO” (FarmHannong Co., Ltd., priority 2017, published 2022)
